The DeepSol protein solubility set

Assay: soluble on expression in E. coli; label from the status in PepcDB or PDB records

| Sequence | soluble on expression in E. coli |
| --- | --- |
| MGSDKIHHHHHHMDQSWVNQAIAKIEADYQRSADTHLIKLELPMLPCIDIYLKDESTHPTGSLKHRLARSLFLYALCNGWITQDTPIIESSSGSTAVSEAYFARLLGLPFIAVMPASTAKKKIQQIEFYGGRCHFVEHSSQIYAESQRLAEELSGHYMDQFTYAERATDWRGNNNIANSIFEQMQREPHPVPSWIVMSPGTGGTSATIGRYIRYQCAKTKLCVVDPENSVFYDYYHSGDASISCAGASRIEGIGRPRAEPSFIPGVVDHMVKIDDSASIATIYWLETLIGRKAGPSTGTNLYGALQLASEMHANGQTGSIVTLLCDSGDRYLDTYYDKQWVDEHIGDITEYQAKLAAFNESGHLE | not soluble |
| MATEAVYGSWDSPITPDLFGKCNCKSICEMQVVGGNVYWIEQNSVTGKRELYSKPTNGDTRTRWADGQSVQTAIHEYGGGALHVLADGSVLFATIEGVFYQKSADSGVEQLAEGNNRMFRFSDFSATDTHVFCVNETHQADAKFPENRLISIDRATKNQNVIAHGADFYAYPRVSPDGKKLVWMQWSLPNMPWDETSIRMADLKGGESSNEVTLKDGTGKQINYSEPTWDGDELLTVNDSTNWWNVYKSAAEPNSVEKNLNPIQREISYPLWQLGFRNYVLNKKYLVMNADGILYVRSGDVTVEIPTPGYTVFGYLSLDQNGSDLFAIASGPKRASSVISIDLANKNFPLKVHRESRDSSEIDALEISEPEEFVFKSDGVDVSAGTLPPVLLLGHGGPTAPAQNNLDLKKQFFTSRGIAVFDVNYRGSTGFGTEFRRMLYKNCGVADRDDMLNGAKALVEQGKVDAEKVLITGSSSGGYLILSCLISPKNIIKAAVSVYGVADLLALDEDTHKLERCYNEMLIGKYPEQASIYEERSPIYHIDKIRTPIAFLHGREDTVVPMSQSITMYEKIRASGVTTALMLFDGEGHGFRNGQVIKESTEATFYFLMKAVGIEPSISSKIEIVNPKH | not soluble |
| MGAVSAFSWASSGRLHALEVFVMKIPKTYDEIMEHFGGLIDEVTAELLESYAKGETVRVSEALAKSGRVAVEGVVLRVFPVRHFSKNGRSGKVGSVVIQDDCTVRVNFWNEAAEIIEAGDIVEGARIKVRGYARGEEIHVNSLSEVEVFVDFVNISELDEKVGERVNVKGFVSGLGEPEKANEIYISDETGRVKVLLENESLYYAVDIGSYVEIYNALAGEDGIYVDRNSRFSVGE | soluble |
| MDTLDGLKTVVAVVETNSFTAASDRLGISKALVSKYVGEVENQLGIRLFNRTTRQLALTDSGRRYYEEAIILLEQFSAMVDNVTGEQTAPRGLLRISAPVTFGEMRLAPLLPKFIALYPDLTVELVLTNGAIDMLEEGIDVRLRIGGVDDSNMIARHLTNFPLVLSASPNYAQTQGLPTTPEQLGEHHCIIDSNFRIGKQWPFISPKGRAETINVQSGLAVNSPQAVREIAIADGGIAMTPNFIVEDALADGRLLRVMPEYTTLEFGLFAIYPHRKYVARKVRCFIDFVLEQFSKK | not soluble |
| MAGHQISFAKEVQPIIETKCLSCHSCFDAPCQLKLESAESLLRGASQEPVYSSARTTEMKPTRLGIDELTVAGWRKRGFYSVLQSDREHAQSLLKNMITLGKQYPFPPNSKLPDSIKTGFARKNQCVSEEEFPGYAHDHPFEGMPFGTSGLTDREYSLLAGWLNQGAAVTDEPVTLTRDEEQTIRTWETLFNRDDKRGRLVARWLYEHLFLAYLYFPEAGDEPRFFELLRSSTPSGEAIIPVATVSPNSDPGGPFFYRLRPISGTIVHKRRISYPLDQMKLRRISELFFSEDWPVGDLPGYDYTERSNPFVTFAAIPARARYQFMLDEAEYFVRTFIHGPVCRGQIATDVIRDHFWTLFQSPESDLFITADTYRRQAIPLLGIPGQDDDLLDAGENWLRYLKRHNDYLALRQQHYVAQQPQGASLAHIWNGDGHNENALLTIFRHHNSASVVRGLAGAVPQTIWLMDYPLLEQTYYQLVVNFNVFGNVAHQVLTRLYFDLIRNGSEQNFVRLLPAGQRKTILNDWYQDLGKLKFGIVYEDIDDRSPSAERFVTENPKLELASHMLERFQSINTLSHDPLNRCEQGNCSRIDQPHWIQQADRALSGIAAQPAASLPGISLLPEVTFVRVQHGQNERTVYTLLRDRAHSNVAFMLGEELRYQPEKDRVTVYPGITGSYPNFMFDVPAAQVGEFVAKLSKAGKIKDFEQIVETWGIRRTHPQFWEILHDITAWQKQQQPLQAGIFDINRYENFLEHHHHHH | not soluble |
| SAARLLRGSLRVLGGHRAPRQLPAARCSHSGGEERLETPSAKKLTDIGIRRIFSPEHDIFRKSVRKFFQEEVIPHHSEWEKAGEVSREVWEKAGKQGLLGVNIAEHLGGIGGDLYSAAIVWEEQAYSNCSGPGFSIHSGIVMSYITNHGSEEQIKHFIPQMTAGKCIGAIAMTEPGAGSDLQGIKTNAKKDGSDWILNGSKVFISNGSLSDVVIVVAVTNHEAPSPAHGISLFLVENGMKGFIKGRKLHKMGLKAQDTAELFFEDIRLPASALLGEENKGFYYIMKELPQERLLIADVAISASEFMFEETRNYVKQRKAFGKTVAHLQTVQHKLAELKTHICVTRAFVDNCLQLHEAKRLDSATACMAKYWASELQNSVAYDCVQLHGGWGYMWEYPIAKAYVDARVQPIYGGTNEIMKELIAREIVFDK | soluble |
| MGSDKIHHHHHHMFTRRFIPVVQSTKQNIGKYVRKDARFTLLTYNMLSPSYMWPQVYTYVAEPYKNWSYRHRLLEKELLNTFKADIMCLQEMTARDYEDYWHDSIGVDVNYGSKFISKTPPKYWKKPVKDMDGVSIFYNLAKFDFISSSGIYLNQLLNVFNQRELKYLYNKKVTLTDGASNVIGEDSLLDVLKGKNQVCLFVSLRHKETGTIFVVLNTHLYWKYDEVKLTQCMIIMRELSKIIKQLLPGDVKGQERVKILFTGDLNSTRDSLVVNFLQGQIVSHGDLNLINPMRPYLDRCVYDDIPKDYFVHTCYSGKLKGIFDYVWYHDSDFLLTKILTGNEVSDELLASNQLGLPNENHPSDHIPLLTEFKIL | not soluble |
| RLSDVLSADVYQQAHSPLSLALGVDIGGHPMVVDLAKMPHLLVAGTTGSGKSVGINAMILSILFKASPEQVRLIMVDPKMLELSVYDGIPHLLTPVVTDMKEAASALRWCVEEMERRYRLMAALGVRNLAGYNTKITEAAANGQPLLNPLWKPVDSMDETAPELQALPYVVVVIDELADMMMVVGKKVEQLIARIAQKARAAGIHMILATQRPSV | not soluble |
| MAVVPIRIVGDPVLHTATTPVTVAADGSLPADLAQLIATMYDTMDAANGVGLAANQIGCSLRLFVYDCAADRAMTARRRGVVINPVLETSEIPETMPDPDTDDEGCLSVPGESFPTGRAKWARVTGLDADGSPVSIEGTGLFARMLQHETGHLDGFLYLDRLIGRYARNAKRAVKSHGWGVPGLSWLPGEDPDPFGH | soluble |
| MSLGQSKVVYLNTHSTSSAGVETLNELCRLAEPGLETMLRQALDQVDDALFDRAERAANNADQALFFATMRQVRMSRRMVVQTFTQEMESAFSRLTQPHSSQTQEPAATAREDYSLELMDETVVEERVAAETVVGKLRTRSVFPLAQLQSRLDYLVVERKVDERNNPLDPRQVVDAFAVAMERLNIEIQPKLIIFKLFEKQALRQLPALYEAANRLLIDAGIMPKLRATGEPLVANEDRVQAPESGHQTSVDSEADTLTGNGSATLELLQGLLAQARGGNQPVPSTARCAGGASHSDLVQALSALQQQPRFANNETGGAQPFAAEELKALLGSALFVAPGGLPQPIERAADDTIDIVSMLFDIILDDSRLAPSIKAVIARLQIPVLKVAMLDRSFFNSRQHPARALINELAHAAMGWVEPENPSADPLYRKMNEVMNRILEGFEEDIVLFEQVLQDFRLFLEQERERAQTVEARTCQAAEGKAKVEDARERVQAEIERRLRGGSVPSVVHQILEGPWFKVLFITCVKDGPQGAVWESQLELMDRLIWSVQPNADPERRQDVLARIPALLNDLREGLNAILYNPFEMTRLFEELEAEHIRCLSAPPADLSDNTVNVEQGSEDESAFAQEGSSYDCDEPSVAAEPPQLTEEQCLREECLQRLVRVDLGTWFEFSTDAGRQLRAKLSARLNGGRRLIFVNRAGFKLADKKTEEVAADLSSGKAFILDHNMLFDKALEQVITNLRDLRVEQAEGHHHHHH | not soluble |
| MASFTSPDIDEKLAILHREMASLRVECDRLLNKHLIVEHTLSQSCSGWPNGAADTSSAYNTGGESCRSVSVTPDGVFIPTTSNSQMIQSQPSPRVLRRTVKMASPAVQRRLVPQNLPTSSSSRPPTVLLPHDSPEQPSRPIHRMHQELPIPEDVVSMVSSNKTQRSIIRAPSAVFGALKGSSLRKLSISRNIQMTTKVNKEESDRKEKEAEEYAKRFRIPSYSVVLKEEKRKSSFRIPVPHYFRSSKAKSKVYQVDAPDEEIEEVIDEEKMAAKTDLGDTTVHYKWKVKRRCDGSRYIVKRPIRSQILKKREAQVYRERAPISTDDDAMSELKLGRYHTKEERKRILERENTKKMLKLQQKMMEKAHPSEQVIYQMSQQKLARQKDAMVMDEFVTTREVLSSRTRPDGIHGVVSVTTV | not soluble |
| MGSDKIHHHHHHASTKVAKSKAKGKVIVYYVYGKRGHTGKYLWSKKTLTGKIGTTYHTKALDLLNDSGYMALASHSKNTSGKFTRKTTKVYYRYYDVIERDYEFKHEADLYMELTGDHRIGLFDRNLQDGVEVVVERTNFSKPYYDVSYSNRVDTGHGSGLKEFHYRFGSTHRFKDNRDGNIYTMALTNSGGITFHAVATKHSTMNELVQVSAHGKLLTAKIRK | not soluble |
| MSLNWKQLISAKRFGMEEFHEERQENRSEFQRDYDRLIFSAPFRRLQNKTQVFPLPGSIFVHNRLTHSLEVSCVGRSLGNDVAKAILERQPELESSFLPEIGSIVSAACLAHDLGNPPFGHSGERAISTFFSEGKGQRLQEKQPDGEQLSPMEWEDLTHFEGNANAFRILTHQFEGRRRGGFVLTYSTLASIVKYPFSSSLAGKKSKFGFFVSEEESYRKIATELGLIQLSEQPLKYARHPLVYLVEAADDICYQMMDIEDAHKLKIITTDETKELLMAFFSEDRQSRLRSTFQIVNDINEQIAYLRSSVIGLLVRECTRVFLEHEQEILAGTFEGALIKHIAEGPAAAYNHCAEISLKRIYRSQDVLDIELAGFRIISTLLELMVDAVTLPGKEKAYSELLTNRVSDQYNIKSPVLYERIQAVLDYISGMTDVFALDLYRKINGNSLPAEGHHHHHH | soluble |
| MGSDKIHHHHHHMIPIKVSMRNLSSLTIAGGSTISSIDIPLNPLGVPPSTIKGTMRTAVHNLLPNGYTSCGEVEPESIREAHKNGVCDVCKLFGYPDSLTGCFTIDVSKTDYRTSYITRVSIDDKTQRAKEGSLFTQQIILPNSDISFTVYYNCNDERLFKLLLYSILDLRYWRLGRNTMIDVKVNNVEEICKSVKCDEEINGILNQLSRYLWEAENK | not soluble |
| MGSDKIHHHHHHMSKPSRWPLTADGIRFITPHVLVKRLQNHALAKGLFVTAMGYYPTASGHAMERKGHPDHILIYCTAGSGFLTMAGKTTEINSGDIFYLPAGSQHSYQASKELPWTLYWLHFDGTLANDFCQHINIVERKFTIGVQPRVIRVFDGISHLRHSSHNLAEFIQGGHQVQALLSYIALLVQQRKPSAINTFDTENLRAMMQEHIHSKLDLDSLAEAAKLSKYHFSKKFKQVTGESPISYFINMKMQRACYLLDSTPRSVKHVASELGYHDTYYFSRLFKKNIGMAPAIYRKAKL | not soluble |
| MIIYKDIFSNDELLSDAYDAKLVDDVIYEADCAMVNVGGDNIDIGANPSAEGGDDDVEEGAEMVNNVVHSFRLQQTAFDKKSFLTYIKGYMKAVKAKLQETNPEEVPKFEKGAQTYVKKVIGSFKDWEFFTGESMDPDAMVVMLNYREDGTTPFVAIWKHGIVEEKI | soluble |
